Source: US20260217779A1 (Chugai, published 2026)
Positions count from the first letter of the chain named. Numbers in names are those of the source.

T1: human CXCR3 (hCXCR3) on Ba/F3 transfectant cells (human, UniProt P49682 1-368)
T1 sequence: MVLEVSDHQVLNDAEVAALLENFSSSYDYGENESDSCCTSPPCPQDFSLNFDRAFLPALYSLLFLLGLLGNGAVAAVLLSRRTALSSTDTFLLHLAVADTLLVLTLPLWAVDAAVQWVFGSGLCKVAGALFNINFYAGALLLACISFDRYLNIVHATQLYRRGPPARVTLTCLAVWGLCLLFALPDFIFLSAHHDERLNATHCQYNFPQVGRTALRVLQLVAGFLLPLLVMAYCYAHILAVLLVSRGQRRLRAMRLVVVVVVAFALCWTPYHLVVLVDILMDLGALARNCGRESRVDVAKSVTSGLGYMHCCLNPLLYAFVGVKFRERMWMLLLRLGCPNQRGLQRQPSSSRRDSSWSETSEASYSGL

B1: hCXCL11.0055-G1T4k.one//VHn-G1T4h.one.H435R (Fc fusion)
chain 1: FTPMFKRGRCLCIGPGVKAVKVADIEKASIMYPSNNCDKIEVIITLKENKGQRCLNPKSKQARLIIKKVERKNFEPKSSDKTHTCPPCPAPELRRGPSVFLFPPKPKDTLMISRTPEVTCVVVDVSHEDPEVKFNWYVDGVEVHNAKTKPREEQYNSTYRVVSVLTVLHQDWLNGKEYKCKVSNKGLPSSIEKTISKAKGQPREPQVCTLPPSREEMTKNQVSLWCLVKGFYPSDIAVEWESNGQPENNYKTTPPVLDSDGSFFLYSKLTVDKSRWQEGNVFSCSVMHEALHNHYTQKSLSLSP
chain 2: EPKSSDKTHTCPPCPAPELRRGPSVFLFPPKPKDTLMISRTPEVTCVVVDVSHEDPEVKFNWYVDGVEVHNAKTKPREEQYNSTYRVVSVLTVLHQDWLNGKEYKCKVSNKGLPSSIEKTISKAKGQPREPQVYTLPPSRCEMTKNQVSLSCAVKGFYPSDIAVEWESNGQPENNYKTTPPVLDSDGSFFLVSKLTVDKSRWQEGNVFSCSVMHEALHNRYTQKSLSLSP
B2: hCXCL11.0058-G1T4k.one//VHn-G1T4h.one.H435R (Fc fusion)
chain 1: B1 chain 1 with T2Y
chain 2: B1 chain 2
B3: hCXCL11.0057-G1T4k.one//VHn-G1T4h.one.H435R (Fc fusion)
chain 1: B1 chain 1 with T2W
chain 2: B1 chain 2
B4: hCXCL11.0056-G1T4k.one//VHn-G1T4h.one.H435R (Fc fusion)
chain 1: B1 chain 1 with T2V
chain 2: B1 chain 2

Target: T1, human CXCR3 (hCXCR3) on Ba/F3 …
Experiment: cell-based or functional assay

Row | Activity retention rate at 33 nM [%] | Activity retention rate at 100 nM [%] | Activity retention rate at 300 nM [%] | Luminescence value at 33 nM | Luminescence value at 100 nM | Luminescence value at 300 nM | Binder
1 | 39 | 58 | 42 | 2.98e+06 | 9.65e+06 | 5.27e+06 | B1
2 | 15 | 42 | 84 | 1.12e+06 | 7.07e+06 | 1.04e+07 | B2
3 | 7 | 37 | 86 | 501000 | 6.21e+06 | 1.07e+07 | B3
4 | 8 | 33 | 59 | 643000 | 5.57e+06 | 7.33e+06 | B4
